Test results as given in paper PMC7997659, “Architecture and structural dynamics of the heteromeric GluK2/K5 kainate receptor” (eLife, 2021).

B1: GluK5em (rat GluK5 cryo-EM expression construct) (receptor)
chain: NPSCQVLSSLRMAAILDDQTVCGRGERLALALAREQINGIIEVPAKARVEVDIFELQRDSQYETTDTMCQILPKGVVSVLGPSSSPASASTVSHICGEKEIPHIKVGPEETPRLQYLRFASVSLYPSNEDVSLAVSRILKSFNYPSASLICAKAECLLRLEELVRGFLISKETLSVRMLDDSRDPTPLLKEIRDDKVSTIIIDANASISHLVLRKASELGMTSAFYKYILTTMDFPILHLDGIVEDSSNILGFSMFNTSHPFYPEFVRSLNMSWRENCEASTYPGPALSAALMFDAVHVVVSAVRELNRSQEIGVKPLACTSANIWPHGTSLMNYLRMVEYDGLTGRVEFNSKGQRTNYTLRILEKSRQGHREIGVWYSNRTLAMNATTLDINLSQTLANKTLVVTTILENPYVMRRPNFQALSGNERFEGFCVDMLRELAELLRFRYRLRLVEDGLYGAPEPNGSWTGMVGELINRKADLAVAAFTITAEREKVIDFSKPFMTLGISILYRVHMGRKPGYFSFLDPFSPAVWLFMLLAYLAVSVVLFLAARLSPYEWYNPHPSLRARPHILENQYTLGNSLWFPVGGFMQQGSEIMPRALSTRIVSGVWWAFTLIIISSYTANLAAFLTVQRMEVPVESADDLADQTNIEYGTIHAGSTMTFFQNSRYQTYQRMWNYMQSKQPSVFVKSTEEGIARVLNSRYAFLLESTMNEYHRRLNCNLTQIGGLLDTKGYGIGMPLGSPFRDEITLAILQLQENNRLEILKRKWWEGGRCPKEEDHRAKGLGMENIGGIFVVLIAGLIIAVFVAVMEFIYKSRAEAKRMK
modifications: N-linked glycans at N219, N271, N322, N372, N394
notes: signal peptide in the construct; rat GluK5 (GRIK5_RAT), from the full-length gene, truncated at position 827 after the M4 helix, four cysteines mutated; GluA2 'tail' ('A2 tail') added at the subunit C-terminus in place of the GluK5 C-terminus; GluK5 with point mutations and its C-terminus replaced by the GluA2 tail; Two copies stand in the GluK2/K5em tetramer (A/C positions); No thrombin cleavage …
B2: GluK2em (rat GluK2 cryo-EM expression construct) (receptor, UniProt P42260 32-908, looked up)
chain: TTHVLRFGGIFEYVESGPMGAEELAFRFAVNTINRNRTLLPNTTLTYDTQKINLYDSFEASKKACDQLSLGVAAIFGPSHSSSANAVQSICNALGVPHIQTRWKHQVSDNKDSFYVSLYPDFSSLSRAILDLVQFFKWKTVTVVYDDSTGLIRLQELIKAPSRYNLRLKIRQLPADTKDAKPLLKEMKRGKEFHVIFDCSHEMAAGILKQALAMGMMTEYYHYIFTTLDLFALDVEPYRYSGVNMTGFRILNTENTQVSSIIEKWSMERLQAPPKPDSGLLDGFMTTDAALMYDAVHVVSVAVQQFPQMTVSSLQCNRHKPWRFGTRFMSLIKEAHWEGLTGRITFNKTNGLRTDFDLDVISLKEEGLEKIGTWDPASGLNMTESQKGKPANITDSLSNRSLIVTTILEEPYVLFKKSDKPLYGNDRFEGYCIDLLRELSTILGFTYEIRLVEDGKYGAQDDVNGQWNGMVRELIDHKADLAVAPLAITYVREKVIDFSKPFMTLGISILYRKPNGTNPGVFSFLNPLSPDIWMYVLLAYLGVSVVLFVIARFSPYEWYNPHPSNPDSDVVENNFTLLNSFWFGVGALMQQGSELMPKALSTRIVGGIWWFFTLIIISSYTANLAAFLTVERMESPIDSADDLAKQTKIEYGAVEDGATMTFFKKSKISTYDKMWAFMSSRRQSVLVKSNEEGIQRVLTSDYAFLMESTTIEFVTQRNCNLTQIGGLIDSKGYGVGTPMGSPYRDKITIAILQLQEEGKLHMMKEKWWRGNGCPEEESKEASALGVQNIGGIFIVLAAGLVLSVFVAVGEFLYKSKKNAQLEKRSFCSAMVEELRMSLKCQRRLKHKPQAPVIVKTEEVINMHTFNDRRLPGKETMA
modifications: N-linked glycans at N67, N378, N412, N546
notes: signal peptide in the construct; rat GluK2 (GRIK2_RAT), full-length gene, RNA-edited at position 567 (I to V), with C576V and C595S; Two copies stand in the GluK2/K5em tetramer (B/D positions); No thrombin cleavage step is told in the purification; also called B/D subunits; source: HEK293S GnTI- cells, BacMam, co-expressed with GluK5em, purified (Strep-Tactin, 1D4 resin, Superose 6); HEK293T, …
B3: wild-type GluK5 (receptor)
chain: NPSCQVLSSLRMAAILDDQTVCGRGERLALALAREQINGIIEVPAKARVEVDIFELQRDSQYETTDTMCQILPKGVVSVLGPSSSPASASTVSHICGEKEIPHIKVGPEETPRLQYLRFASVSLYPSNEDVSLAVSRILKSFNYPSASLICAKAECLLRLEELVRGFLISKETLSVRMLDDSRDPTPLLKEIRDDKVSTIIIDANASISHLVLRKASELGMTSAFYKYILTTMDFPILHLDGIVEDSSNILGFSMFNTSHPFYPEFVRSLNMSWRENCEASTYPGPALSAALMFDAVHVVVSAVRELNRSQEIGVKPLACTSANIWPHGTSLMNYLRMVEYDGLTGRVEFNSKGQRTNYTLRILEKSRQGHREIGVWYSNRTLAMNATTLDINLSQTLANKTLVVTTILENPYVMRRPNFQALSGNERFEGFCVDMLRELAELLRFRYRLRLVEDGLYGAPEPNGSWTGMVGELINRKADLAVAAFTITAEREKVIDFSKPFMTLGISILYRVHMGRKPGYFSFLDPFSPAVWLFMLLAYLAVSCVLFLAARLSPYEWYNPHPCLRARPHILENQYTLGNSLWFPVGGFMQQGSEIMPRALSTRCVSGVWWAFTLIIISSYTANLAAFLTVQRMEVPVESADDLADQTNIEYGTIHAGSTMTFFQNSRYQTYQRMWNYMQSKQPSVFVKSTEEGIARVLNSRYAFLLESTMNEYHRRLNCNLTQIGGLLDTKGYGIGMPLGSPFRDEITLAILQLQENNRLEILKRKWWEGGRCPKEEDHRAKGLGMENIGGIFVVLICGLIIAVFVAVMEFIWSTRRSAESEEVSVCQEMLQELRHAVSCRKTSRSRRRRRPGGPSRALLSLRAVREMRLSNGKLYSAGAGGDAGAHGGPQRLLDDPGPPGGPRPQAPTPCTHVRVCQECRRIQALRASGAGAPPRGLGTPAEATSPPRPRPGPTGPRELTEHE

Key:
[1] = target: B2; assay: cryo-EM structure; GluK2/K5em co-expressed and co-purified in DDM/CHS, 3.7 mg/mL, with 1 mM CNQX (antagonist-bound); full-length 5.3 Å, ATD layer 3.6 Å, LBD-TMD 4.2 Å; conditions: both partners purified
[2] = target: the molecule itself; assay: as above
[3] = target: wild-type GluK2 (rat) (UniProt P42260)

Binder: B1
stoichiometry N [1]: 1 GluK5 per GluK2 (printed as 2:2)

Binder: B2
binding result [2]: binds

Binder: B3
deactivation current decay after a 1 ms pulse of 1 mM L-Glu, outside-out patches of HEK293T cells co-transfected with wild-type GluK2 and GluK5; weighted τ [3]: 23.6 ms
deactivation current decay after a 1 ms pulse of 1 mM L-Glu, outside-out patches of HEK293T cells co-transfected with wild-type GluK2 and GluK5; τ3 (slow component) [3]: 60 ms
